Experimental data reported in patent US20060193771A1.

Key:
[1] = target: human CD30, native, expressed on cells (human); assay: FACS, L428 cells, MAb 5 µg/ml, control HeFi-I
[2] = target: human CD30, native, expressed on cells (human); assay: competitive FACS on L540 cells, unlabeled MAb 2.5 µg/ml; competitor: biotin-T24
[3] = target: T1, recombinant soluble CD30 (sCD30) produced in E. coli (human); assay: indirect ELISA, sCD30 coated
T1 sequence: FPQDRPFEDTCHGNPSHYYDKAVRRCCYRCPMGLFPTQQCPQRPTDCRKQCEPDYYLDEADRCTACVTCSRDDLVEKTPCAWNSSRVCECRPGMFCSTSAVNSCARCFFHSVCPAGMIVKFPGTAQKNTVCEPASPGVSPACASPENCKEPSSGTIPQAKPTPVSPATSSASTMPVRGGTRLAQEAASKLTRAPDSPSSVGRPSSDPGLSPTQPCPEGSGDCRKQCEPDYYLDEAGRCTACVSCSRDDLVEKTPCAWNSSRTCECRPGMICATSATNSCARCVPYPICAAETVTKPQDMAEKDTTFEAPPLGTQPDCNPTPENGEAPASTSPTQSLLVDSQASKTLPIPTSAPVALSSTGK

[4] = target: human CD30, native, expressed on cells (human); assay: competitive FACS on L540 cells, unlabeled MAb 2.5 µg/ml; competitor: biotin-HeFi-I
[5] = target: human CD30, native, expressed on cells (human); assay: competitive FACS on L540 cells, unlabeled MAb 2.5 µg/ml; competitor: biotin-T25
[6] = target: human CD30, native, expressed on cells (human); assay: competitive FACS on L540 cells, unlabeled MAb 2.5 µg/ml; competitor: biotin-T14
[7] = target: human CD30, native, expressed on cells (human); assay: competitive FACS on L540 cells, unlabeled MAb 2.5 µg/ml; competitor: biotin-T6
CD30-Fc (human) = target: T2, CD30-Fc (human); assay: indirect ELISA, CD30-Fc coated
T2 sequence: T1 sequence

[8] = target: human CD30, native, expressed on cells (human); assay: competitive FACS on L540 cells, unlabeled MAb 2.5 µg/ml; competitor: biotin-HRS-4
[9] = target: human CD30, native, expressed on cells (human); assay: FACS, L540 cells, MAb 5 µg/ml, control HeFi-I
[10] = target: transferrin receptor on L540 cells (UniProt P02786); assay: cell-based or functional assay
[11] = target: human CD30, native, expressed on cells (human); assay: FACS, L540 cells, control HeFi-I
[12] = target: human CD30, native, expressed on cells (human); assay: FACS, L428 cells, control HeFi-I

Chain of transferrin receptor on L540 cells (P02786 whole entry): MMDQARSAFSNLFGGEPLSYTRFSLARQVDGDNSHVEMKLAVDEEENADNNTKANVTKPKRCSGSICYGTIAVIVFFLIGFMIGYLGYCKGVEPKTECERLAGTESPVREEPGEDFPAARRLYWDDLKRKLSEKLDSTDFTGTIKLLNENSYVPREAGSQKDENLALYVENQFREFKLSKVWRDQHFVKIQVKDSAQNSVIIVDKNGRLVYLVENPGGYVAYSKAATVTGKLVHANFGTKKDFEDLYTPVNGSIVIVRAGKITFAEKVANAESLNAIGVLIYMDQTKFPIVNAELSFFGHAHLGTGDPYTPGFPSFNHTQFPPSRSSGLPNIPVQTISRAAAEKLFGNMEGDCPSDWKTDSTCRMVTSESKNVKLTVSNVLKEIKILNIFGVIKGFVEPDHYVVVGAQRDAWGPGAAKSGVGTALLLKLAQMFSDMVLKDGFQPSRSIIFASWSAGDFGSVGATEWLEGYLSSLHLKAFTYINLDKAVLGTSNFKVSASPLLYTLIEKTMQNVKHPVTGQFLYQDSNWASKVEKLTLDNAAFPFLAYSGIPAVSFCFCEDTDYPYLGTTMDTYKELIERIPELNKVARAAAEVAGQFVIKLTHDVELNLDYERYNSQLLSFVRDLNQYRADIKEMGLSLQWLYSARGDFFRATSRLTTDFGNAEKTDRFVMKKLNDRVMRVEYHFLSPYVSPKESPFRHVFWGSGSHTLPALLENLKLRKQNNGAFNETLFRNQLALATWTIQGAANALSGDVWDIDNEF
Chain of HB21(scFv)-PE40 (P11439 278-638): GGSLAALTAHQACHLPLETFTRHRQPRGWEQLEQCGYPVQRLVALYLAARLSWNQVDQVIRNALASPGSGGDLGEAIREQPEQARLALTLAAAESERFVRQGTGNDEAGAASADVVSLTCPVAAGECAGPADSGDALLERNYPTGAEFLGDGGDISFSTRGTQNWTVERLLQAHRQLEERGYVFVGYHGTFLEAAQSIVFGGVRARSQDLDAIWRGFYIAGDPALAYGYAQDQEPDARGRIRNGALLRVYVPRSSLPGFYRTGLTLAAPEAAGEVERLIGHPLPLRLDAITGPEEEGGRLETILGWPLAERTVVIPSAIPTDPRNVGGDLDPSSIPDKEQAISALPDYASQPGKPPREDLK

relative reactivity in FACS (% of control) [1]	inhibition of the binding of biotin-MAb (%) [2] [%]	titer in ELISA [3] [mL/µg]	inhibition of the binding of biotin-MAb (%) [4] [%]	inhibition of the binding of biotin-MAb (%) [5] [%]	inhibition of the binding of biotin-MAb (%) [6] [%]	inhibition of the binding of biotin-MAb (%) [7] [%]	titer in ELISA (CD30-Fc (human)) [mL/µg]	inhibition of the binding of biotin-MAb (%) [8] [%]	relative reactivity in FACS (% of control) [9]	Substance	IC50 (ng/ml) in cytotoxicity test, A431/CD25 cells [10] [ng/mL]	IC50 (ng/ml) in cytotoxicity test, A431/CD30 cells [10] [ng/mL]	IC50 (ng/ml) in cytotoxicity test, HUT102W cells [10] [ng/mL]	IC50 (ng/ml) in cytotoxicity test, SUDHL-1 cells [10] [ng/mL]	IC50 (ng/ml) in cytotoxicity test, SUP-M2 cells [10] [ng/mL]	relative reactivity in FACS (% of control) [11]	relative reactivity in FACS (% of control) [12]
160 % of control	18.2	50	0	23.3	108	75.6	75	80.3	111 % of control	Ber-H2 MAb (antibody)							
										HB21(scFv)-PE40 (from UniProt P11439 278-638)	0.03	0.02	1.5	0.05	0.02		
	3.9		0	25	108	87.4	50	82.6		HRS-4 MAb (antibody)							
										control mouse IgG1 (antibody)						0.2 % of control	16 % of control
